For 18 substances, Ki and Kd results are on record in publication PMC517823.

Assay [1] addresses Ffh (UniProt P0AGD7). Kind of assay: inhibition assay.
Assay [2] addresses Ffh (UniProt P0AGD7). As to the kind of experiment: other; GTP; inhibition assay. The note with it: domain or fragment.
Another assay has as its target FtsY (Escherichia coli) (UniProt P10121). The note with it: cited from earlier work.

Ffh (UniProt P0AGD7), sequence (P0AGD7 whole entry, the tested form may be a part): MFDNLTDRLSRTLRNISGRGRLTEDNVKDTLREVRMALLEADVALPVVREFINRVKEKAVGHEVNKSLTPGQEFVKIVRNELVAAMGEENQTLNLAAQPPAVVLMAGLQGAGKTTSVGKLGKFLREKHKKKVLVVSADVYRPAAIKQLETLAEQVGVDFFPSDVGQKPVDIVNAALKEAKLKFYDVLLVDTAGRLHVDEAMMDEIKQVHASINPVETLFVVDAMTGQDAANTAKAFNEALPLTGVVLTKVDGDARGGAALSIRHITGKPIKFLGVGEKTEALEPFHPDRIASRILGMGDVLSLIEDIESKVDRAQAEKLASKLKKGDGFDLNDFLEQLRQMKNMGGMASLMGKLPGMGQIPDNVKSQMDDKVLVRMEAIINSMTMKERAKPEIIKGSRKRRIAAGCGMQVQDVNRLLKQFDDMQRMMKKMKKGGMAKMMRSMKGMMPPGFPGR
Ffh (from UniProt P0AGD7), sequence (P0AGD7 whole entry): as the sequence (P0AGD7 whole entry, the tested form may be a part) above
FtsY (Escherichia coli), sequence (P10121 2-497): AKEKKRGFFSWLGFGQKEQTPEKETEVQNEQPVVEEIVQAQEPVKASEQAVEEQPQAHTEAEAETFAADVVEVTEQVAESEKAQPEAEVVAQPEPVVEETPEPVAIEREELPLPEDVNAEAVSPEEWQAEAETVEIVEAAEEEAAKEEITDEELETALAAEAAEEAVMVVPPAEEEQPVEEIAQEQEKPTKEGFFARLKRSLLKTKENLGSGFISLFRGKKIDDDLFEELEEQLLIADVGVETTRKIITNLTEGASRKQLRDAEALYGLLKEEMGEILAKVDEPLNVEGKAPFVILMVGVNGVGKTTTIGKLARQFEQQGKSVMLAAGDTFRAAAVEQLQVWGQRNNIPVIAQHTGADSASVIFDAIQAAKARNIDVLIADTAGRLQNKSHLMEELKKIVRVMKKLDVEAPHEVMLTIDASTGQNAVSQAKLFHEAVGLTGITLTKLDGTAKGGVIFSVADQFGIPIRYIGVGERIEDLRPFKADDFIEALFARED
FtsY Arg386(191) mutant, sequence (P10121 47-497, change not shown): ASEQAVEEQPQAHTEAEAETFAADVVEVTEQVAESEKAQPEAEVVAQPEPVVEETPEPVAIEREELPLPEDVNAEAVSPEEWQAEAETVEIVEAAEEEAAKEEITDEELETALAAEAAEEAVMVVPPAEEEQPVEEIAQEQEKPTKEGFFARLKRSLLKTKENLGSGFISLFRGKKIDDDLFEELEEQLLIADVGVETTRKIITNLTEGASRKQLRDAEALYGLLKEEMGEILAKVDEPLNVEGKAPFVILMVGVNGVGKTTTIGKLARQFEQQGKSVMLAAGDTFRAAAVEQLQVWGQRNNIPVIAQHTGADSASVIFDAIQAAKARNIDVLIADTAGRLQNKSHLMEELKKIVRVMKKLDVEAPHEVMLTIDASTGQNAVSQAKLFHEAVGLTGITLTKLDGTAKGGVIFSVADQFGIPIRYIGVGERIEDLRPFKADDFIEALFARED
wild-type FtsY(47-497) (from UniProt P10121) T307(112)W, sequence (P10121 47-497, change not shown): as above
wild-type FtsY(47-497) (from UniProt P10121) K312(117)A, sequence (P10121 47-497, change not shown): as above
wild-type FtsY(47-497) (from UniProt P10121) K306(111)A, sequence (P10121 47-497, change not shown): as above
wild-type FtsY(47-497) (from UniProt P10121) Q339(144)A, sequence (P10121 47-497, change not shown): as above
wild-type FtsY(47-497) (from UniProt P10121) D382(187)A, sequence (P10121 47-497, change not shown): as above
wild-type FtsY(47-497) (from UniProt P10121) K453(252)E, sequence (P10121 47-497, change not shown): as above
wild-type FtsY(47-497) (from UniProt P10121) D330(135)A, sequence (P10121 47-497, change not shown): as above
wild-type FtsY(47-497) (from UniProt P10121) D479(278)A, sequence (P10121 47-497, change not shown): as above
wild-type FtsY(47-497) (from UniProt P10121) R386(191)A, sequence (P10121 47-497, change not shown): as above
wild-type FtsY(47-497) (from UniProt P10121) K447(246)A, sequence (P10121 47-497, change not shown): as above
wild-type FtsY(47-497) (from UniProt P10121) G454(253)W, sequence (P10121 47-497, change not shown): as above

The Ki is the equilibrium dissociation constant of an inhibitor or competing ligand from its target. Lower therefore signals a stronger hold on the target. In the assay with Ffh [1], “wild-type FtsY(47-497) (from UniProt P10121) N302(107)W” yielded a Ki of 140 nM.

“wild-type FtsY(47-497) (from UniProt P10121) T307(112)W” showed a Ki in the assay with Ffh [1] of 9900 nM.

As to “wild-type FtsY(47-497) (from UniProt P10121) Q339(144)A”, the Ki with Ffh [1] came out at 3900 nM.

“wild-type FtsY(47-497) (from UniProt P10121) T307(112)A” displayed a Ki with Ffh [1] of 7100 nM.

The substance “wild-type FtsY(47-497) (from UniProt P10121) A336(141)W” gave a Ki with Ffh [1] of 160 nM.

For the substance “FtsY Arg386(191) mutant (from UniProt P10121 47-497)”, in the assay with Ffh [2], the Ki is 120 nM.

Regarding “wild-type FtsY(47-497) (from UniProt P10121) K447(246)A”, in the assay with Ffh [1], the Ki turned out to be 11000 nM.

Broadly, the Kd is the free concentration of one partner at which half of the binding sites on the other are occupied at equilibrium, for simple one-to-one binding. Regarding Ffh (from UniProt P0AGD7), the Kd with FtsY (Escherichia coli) is 16 nM.

The substance “wild-type FtsY(47-497) (from UniProt P10121) D330(135)A” returned a Ki in the assay with Ffh [1] of 2400 nM.

In the case of “wild-type FtsY(47-497) (from UniProt P10121) D479(278)A”, in the assay with Ffh [1], the Ki is 2800 nM.

In the case of “wild-type FtsY(47-497) (from UniProt P10121) K312(117)A”, the Ki in the assay with Ffh [1] is 2400 nM.

Substance “wild-type FtsY(47-497) (from UniProt P10121) K306(111)A” came in with a Ki with Ffh [1] of 3500 nM.

Turning to “wild-type FtsY(47-497) (from UniProt P10121) R333(138)A”, the Ki with Ffh [1] was 240 nM.

Substance “wild-type FtsY(47-497) (from UniProt P10121) N302(107)A” displayed an inhibitory constant (Ki) in the assay with Ffh [1] of 110 nM.

Consider “wild-type FtsY(47-497) (from UniProt P10121) G454(253)W”, for which the Ki in the assay with Ffh [1] is 4200 nM.

With “wild-type FtsY(47-497) (from UniProt P10121) R386(191)A”, the inhibitory constant (Ki) in the assay with Ffh [1] amounted to 120 nM.

For “wild-type FtsY(47-497) (from UniProt P10121) K453(252)E”, the Ki in the assay with Ffh [1] was 3100 nM.

“wild-type FtsY(47-497) (from UniProt P10121) D382(187)A”: in the assay with Ffh [1], the Ki was 27000 nM.
